# Publication PMC5082905, “Identification of Residues in the Lipopolysaccharide ABC Transporter That Coordinate ATPase Activity with Extractor Function” (mBio, 2016)
# T1: LptG^E88A (E. coli, UniProt P0ADC6 1-360, E88A)
# T1 sequence (looked up): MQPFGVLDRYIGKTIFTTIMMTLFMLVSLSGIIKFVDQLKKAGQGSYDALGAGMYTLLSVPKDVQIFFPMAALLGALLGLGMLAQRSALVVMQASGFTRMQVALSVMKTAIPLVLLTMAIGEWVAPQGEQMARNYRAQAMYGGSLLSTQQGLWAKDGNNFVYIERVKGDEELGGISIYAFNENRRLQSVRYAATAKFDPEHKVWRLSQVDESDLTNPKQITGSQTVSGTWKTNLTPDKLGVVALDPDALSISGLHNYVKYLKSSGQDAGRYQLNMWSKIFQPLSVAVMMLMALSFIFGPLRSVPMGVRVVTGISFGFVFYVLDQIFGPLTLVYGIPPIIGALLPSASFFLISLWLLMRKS
# T2: LptF^E84A (E. coli, UniProt P0AF98 1-366, E84A)
# T2 sequence (looked up): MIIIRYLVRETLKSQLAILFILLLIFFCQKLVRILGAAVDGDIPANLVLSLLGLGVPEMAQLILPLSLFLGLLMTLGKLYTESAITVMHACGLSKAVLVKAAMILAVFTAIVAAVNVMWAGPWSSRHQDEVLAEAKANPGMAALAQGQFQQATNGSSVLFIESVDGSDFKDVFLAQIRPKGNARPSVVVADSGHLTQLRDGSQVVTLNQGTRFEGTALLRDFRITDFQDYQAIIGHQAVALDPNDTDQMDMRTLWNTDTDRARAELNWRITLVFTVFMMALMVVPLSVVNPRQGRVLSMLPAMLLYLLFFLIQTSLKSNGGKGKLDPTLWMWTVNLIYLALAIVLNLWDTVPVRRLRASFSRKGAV
# B1: LptB^WT (enzyme, E. coli, UniProt P0A9V1 1-241, looked up)
# chain: MATLTAKNLAKAYKGRRVVEDVSLTVNSGEIVGLLGPNGAGKTTTFYMVVGIVPRDAGNIIIDDDDISLLPLHARARRGIGYLPQEASIFRRLSVYDNLMAVLQIRDDLSAEQREDRANELMEEFHIEHLRDSMGQSLSGGERRRVEIARALAANPKFILLDEPFAGVDPISVIDIKRIIEHLRDSGLGVLITDHNVRETLAVCERAYIVSQGHLIAHGTPTEILQDEHVKRVYLGEDFRL
# Legend:
# [1] = molecular target: T1, LptG^E88A; assay: cell-based or functional assay
# [2] = molecular target: T2, LptF^E84A; assay: cell-based or functional assay
binder,measurement,setting,value
B1,ATPase activity of purified LptB2FG-LptC-His7 complexes relative to the WT complex,[1],~0.15 % of the ATPase activity of WT complexes
same,ATPase activity of purified LptB2FG-LptC-His7 complexes relative to the WT complex,[2],~0.15 % of the ATPase activity of WT complexes
